From PMC11472156, “Synergistic regulation of fusion pore opening and dilation by SNARE and synaptotagmin-1” (Journal of Molecular Cell Biology, 2024)
Residue numbers refer to the chain shown, from its start. In names and notes the source's numbering stands.

Molecular target: the molecule itself
Test: single-molecule fluorescence photobleaching step counting; 40 pM Cy5-labeled C2AB incubated 30 min at room temperature on a DiI-labeled supported lipid bilayer (15% DOPS, with or without 1% PIP2), no Ca2+; unbound protein removed; photobleaching steps per fluorescent spot fitted to a Poisson distribution and corrected for unlabeled fragments; printed numbers are with 1% PIP2

B1: Syt1 C2B domain-containing C2AB fragment, C2AB (A418C), Cy5-labeled (domain or fragment)
chain: KLGKLQYSLDYDFQNNQLLVGIIQAAELPALDMGGTSDPYVKVFLLPDKKKKFETKVHRKTLNPVFNEQFTFKVPYSELGGKTLVMAVYDFDRFSKHDIIGEFKVPMNTVDFGHVTEEWRDLQSAEKEEQEKLGDICFSLRYVPTAGKLTVVILEAKNLKKMDVGGLSDPYVKIHLMQNGKRLKKKKTTIKKNTLNPYYNESFSFEVPFEQIQKVQVVVTVLDYDKIGKNDAIGKVFVGYNSTGAELRHWSDMLANPRRPIAQWHTLQVEEEVDAMLCVKK
modifications: Sulfo-Cy5 maleimide label (labeling efficiency 34.5%-42%)
For B1, the “stoichiometry N” value was 6.85 molecules.

B2: C2AB_F349A (A418C), Cy5-labeled (domain or fragment)
chain: B1 chain with F209A
modifications: Sulfo-Cy5 maleimide label (labeling efficiency 34.5%-42%)
In the case of B2, the “stoichiometry N” value is reported as 3.03 molecules.
